{
  "source": "patent US8524227B2",
  "about": "“Anti-IL-TIF antibodies” (ZymoGenetics, Inc., priority 2002, dated 2013)",
  "key": {"IL-TIF [1]": {"biological_target": "T1, IL-TIF (Homo sapiens, UniProt Q9GZX6)", "T1 sequence (Q9GZX6 13-179 limits assumed)": "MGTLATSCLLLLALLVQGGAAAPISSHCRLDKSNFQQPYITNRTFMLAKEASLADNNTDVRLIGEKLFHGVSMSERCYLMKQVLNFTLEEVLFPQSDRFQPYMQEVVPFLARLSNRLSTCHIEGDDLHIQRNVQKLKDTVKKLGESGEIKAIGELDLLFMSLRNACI", "experiment": "SAA induction by IL-TIF in mice, inhibition by zcytor16-Fc4", "assay_type": "in vivo", "conditions": "3 μg IL-TIF IP with 20-100 ug zcytor16-Fc4 IP 15 minutes before", "procedure": "To assess whether zcytor16 could inhibit the SAA induction by IL-TIF mice (female, C3H/HEJ, 8 weeks old; Jackson Labs, Bar Harbor, Me.) were divided into five groups of three animals each and treated by IP injection of proteins as shown in Table 15 below:\nThe zcytor16 injections preceded the IL-TIF injection by 15 minutes. Both protein injections were given by the intraperitoneal route. A blood sample was taken from each mouse prior to treatment, then at 2 and 6 hours after treatment. Serum was prepared from each of the samples for measurement of SAA and IL-TIF.\nAn ELISA was performed as described previously to determine the level of SAA in mice treated with IL-TIF and a soluble receptor for IL-TIF, zcytor16-Fc4 described herein."}, "IL-TIF [2]": {"biological_target": "T2, IL-TIF (Homo sapiens, UniProt Q9GZX6)", "T2 construct": "made in house; host or cells: BHK cells", "T2 sequence (Q9GZX6 34-179)": "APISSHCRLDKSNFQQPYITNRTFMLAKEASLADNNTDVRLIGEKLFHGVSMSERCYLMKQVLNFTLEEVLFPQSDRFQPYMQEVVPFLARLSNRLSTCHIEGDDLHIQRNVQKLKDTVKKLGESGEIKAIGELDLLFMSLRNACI", "experiment": "Effect of zcytor16 on IL-TIF-induced acanthosis", "assay_type": "in vivo, mice", "conditions": "for Average Acanthosis: day 8, score 0-3", "procedure": "Mice (female, C3H/HEJ, 8 weeks old; Jackson Labs, Bar Harbor, Me.) were divided into eight groups of eight animals each. IL-TIF was administered by constant infusion via mini-osmotic pumps, as described in example 32a. Alzet mini-osmotic pumps (model 2001; Alza corporation Palo Alto, Calif.) were loaded under sterile conditions with IL-TIF protein (A#601F, 0.22 mL) diluted in phosphate buffered saline (pH 7.0) to a concentration within the pump of 0.22 mg/mL for group 1-2 mice, 0.45 mg/mL for group 3-4 mice, 0.9 mg/mL for group 5-6 mice, or 0 mg/mL (diluent only) for group 7-8 mice. These pumps are designed to deliver their contents at a rate of 0.5 μl per hour over a period of 14 days. Using this nominal rate of infusion, dose levels were calculated to be […] and 0 μg/day for groups 7-8. For each pair of groups at a given dose level of IL-TIF, one of the groups was injected three times (days 1, 3, and 5) with 0.1 mg of human zcytor16 Fc protein (described herein) by the interperitoneal route. The other group was injected in the same fashion with vehicle (PBS).\nOn day 8 of the study, mice were euthanized and an approximately 1 cm square sample of skin surrounding the pump area was collected from each mouse. The skin was fixed in 10% neutral buffered formalin. Formalin fixed samples of skin were embedded in paraffin, routinely processed, sectioned at 5 um and stained with hematoxylin and eosin. The tissues were microscopically examined in blinded fashion by an ACVP board certified veterinary pathologist. This study was scored in a different manner than the previous example. The number of layers in the epidermis, from stratum basalis to stratum granulosum, was determined Based on the results, the sections were scored as follows: O-normal (2-3 layers), 1-mild thickening (3-4 layers), 2-moderate thickening (4-6 layers) and 3-severe thickening (>6 layers)."}},
  "data": [
    {"molecule": "zcytor16-Fc4: soluble receptor for IL-TIF, zcytor16 fused to Fc4; IL-TIF antagonist (protein) TQSTHESLKPQRVQFQSRNFHNILQWQPGRALTGNSSVYFVQYKIYGQRQWKNKEDCWGTQELSCDLTSETSDIQEPYYGRVRAASAGSYSEWSMTPRFTPWWETKIDPPVMNITQVNGSLLVILHAPNLPYRYQKEKNVSIEDYYELLYRVFIINNSLEKEQKVYEGAHRAVEIEALTPHSSYCVVAEIYQPMLDRRSQRSEERCVEIPEPRSSDKTHTCPPCPAPEAEGAPSVFLFPPKPKDTLMISRTPEVTCVVVDVSHEDPEVKFNWYVDGVEVHNAKTKPREEQYNSTYRVVSVLTVLHQDWLNGKEYKCKVSNKALPSSIEKTISKAKGQPREPQVYTLPPSRDELTKNQVSLTCLVKGFYPSDIAVEWESNGQPENNYKTTPPVLDSDGSFFLYSKLTVDKSRWQQGNVFSCSVMHEALHNHYTQKSLSLSPGK", "values": [
      {"measurement": "level of SAA", "setting": "IL-TIF [1]", "result": "reduction in the level of SAA induced by IL-TIF alone to background levels"},
      {"measurement": "effect on epidermal thickening", "setting": "IL-TIF [2]; 100 μg zcytor16 (3 injections), mice treated with 5 μg IL-TIF/day", "result": "decreased the amount of epidermal thickening"},
      {"measurement": "Average Acanthosis", "setting": "IL-TIF [2]; pump 2.5 μg IL-TIF/day + 100 μg zcytor16 (3 injections)", "result": 0.8},
      {"measurement": "Average Acanthosis", "setting": "IL-TIF [2]; pump 5 μg IL-TIF/day + 100 μg zcytor16 (3 injections)", "result": 0.6},
      {"measurement": "Average Acanthosis", "setting": "IL-TIF [2]; pump 10 μg IL-TIF/day + 100 μg zcytor16 (3 injections)", "result": 1.9},
      {"measurement": "Average Acanthosis", "setting": "IL-TIF [2]; pump Vehicle + 100 μg zcytor16 (3 injections)", "result": 0.0}
    ]}
  ]
}
